Experimental findings from article PMC11543891, “Expression, purification, and characterization of diacylated Lipo-YcjN from Escherichia coli” (The Journal of Biological Chemistry, 2024) are described below.

This data set deals with the molecule itself. Description: SEC; Hiload 16/600 Superdex 200 pg, 25 mM Tris-HCl pH 7.5, 100 mM NaCl, run without LMNG and with 0.01% LMNG; elution volumes compared with gel filtration standards.

B1: Lipo-YcjN (diacylated lipoprotein form of E. coli YcjN, from the construct SP-YcjN-10H) (natural protein, E. coli K-12, UniProt P76042 21-430, looked up)
chain: CKEENKTNVSIEFMHSSVEQERQAVISKLIARFEKENPGITVKQVPVEEDAYNTKVITLSRSGSLPEVIETSHDYAKVMDKEQLIDRKAVATVISNVGEGAFYDGVLRIVRTEDGSAWTGVPVSAWIGGIWYRKDVLAKAGLEEPKNWQQLLDVAQKLNDPANKKYGIALPTAESVLTEQSFSQFALSNQANVFNAEGKITLDTPEMMQALTYYRDLTANTMPGSNDIMEVKDAFMNGTAPMAIYSTYILPAVIKEGDPKNVGFVVPTEKNSAVYGMLTSLTITAGQKTEETEAAEKFVTFMEQADNIADWVMMSPGAALPVNKAVVTTATWKDNDVIKALGELPNQLIGELPNIQVFGAVGDKNFTRMGDVTGSGVVSSMVHNVTVGKADLSTTLQASQKKLDELIEQH
modifications: diacylated at cysteine 21 (S-diacylglyceryl-cysteine, the new N terminus), acyl chain compositions [16:0, 16:0] and [16:0, 18:1]
notes: YcjN, E. coli K-12, expressed with its native N-terminal signal peptide; by intact mass the purified protein is the processed lipoprotein that begins at the diacylated cysteine 21; Expressed as the full-length precursor (SP-YcjN-10H); LC-MS masses of 46,699 and 46,726 Da fit the protein cut before C21 and diacylated; No tag removal is described; also called lipidated YcjN
With B1, the binding result was “binds”.
